Experimental findings from patent publication US20120183527A1 are described below.

Assay [1] concerns the target C-terminal monomer (Aβ monomer coupled at the carboxyl terminus) (UniProt P05067). Description: SPR, biotin-tagged Aβ on Neutravidin sensor (C-terminal monomer sensor).
In assay [2] the target is N-terminal monomer (Aβ monomer coupled at the amino terminus) (UniProt P05067). The assay is described as follows: SPR, biotin-tagged Aβ on Neutravidin sensor (N-terminal monomer sensor). In general terms: SPR reads the build-up and loss of mass on a sensor chip optically.
Assay [3] addresses biotinylated Aβ oligomer bound to Neutravidin (Aβ42 oligomer SPR sensor) (UniProt P05067). The assay is described as follows: SPR, biotin-tagged Aβ on Neutravidin sensor (Oligomer sensor).
The target in assay [4] is Aβ monomer peptide (Aβ42 Peptide Monomer) on ELISA plates (UniProt P05067). The assay is described as follows: competition ELISA on Aβ monomer plates, IVIG in 3-fold dilutions from 1 mg/ml, competitor thyroglobulin 40 µg/ml. On the technique in general: ELISA stands for enzyme-linked immunosorbent assay.
Assay [5] concerns the target globular Aβ oligomer (Aβ42 oligomers) on ELISA plates (UniProt P05067). The assay is described as follows: ELISA, Aβ oligomer plate, fitted maximum.
The target in assay [6] is Aβ monomer peptide (Aβ42 Peptide Monomer) on ELISA plates (UniProt P05067). The assay is described as follows: ELISA half-max titer, Aβ monomer plate against blank plate.
Assay [7] has the same target. The assay is described as follows: ELISA, Aβ monomer plate, fitted maximum.
In assay [8] the target is Aβ fibril (Aβ42 fibril) (UniProt P05067). The assay is described as follows: ELISA half-max titer, Aβ fibril plate against blank plate.
The target of assay [9] is globular Aβ oligomer (Aβ42 oligomers) on ELISA plates (UniProt P05067). Description: ELISA, Aβ oligomer plate, typical half maximum titer.
The target is the same in assay [10]. The assay is described as follows: ELISA half-max titer, Aβ oligomer plate against blank plate.
The target is the same in assay [11]. Description: ELISA, best fit of curves, blank plate against Aβ oligomer plate.
For assay [12] the target is unchanged. The assay is described as follows: ELISA on globular Aβ oligomer plates with chaotropic salt elution (avidity); this end, printed '>4M', is untreated IVIG (50% not reached at 4M, the highest concentration used).
Assay [13] deals with Aβ monomer peptide (Aβ42 Peptide Monomer) on ELISA plates (UniProt P05067). The assay is described as follows: ELISA, best fit of curves, blank plate against Aβ monomer plate.
The target is the same in assay [14]. Description: ELISA, Aβ monomer plate, typical half maximum titer.
Assay [15] concerns the target Aβ fibril (Aβ42 fibril) (UniProt P05067). The assay is described as follows: ELISA, best fit of curves, blank plate against Aβ fibril plate.
Assay [16] has the same target. Description: ELISA, Aβ fibril plate, typical half maximum titer.
Assay [17] shares this target. The assay is described as follows: ELISA, Aβ fibril plate, fitted maximum.

Chain of globular Aβ oligomer (Aβ42 oligomers) on ELISA plates (P05067 672-713 limits assumed): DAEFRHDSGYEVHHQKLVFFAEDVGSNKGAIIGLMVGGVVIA
Chain of Aβ monomer peptide (Aβ42 Peptide Monomer) on ELISA plates (P05067 672-713 limits assumed): as above
Chain of Aβ fibril (Aβ42 fibril) (P05067 672-713 limits assumed): as above
Chain of N-terminal monomer (Aβ monomer coupled at the amino terminus) (P05067 672-713): as the sequence (P05067 672-713 limits assumed) above
Chain of biotinylated Aβ oligomer bound to Neutravidin (Aβ42 oligomer SPR sensor) (P05067 672-713 limits assumed): as above
Chain of C-terminal monomer (Aβ monomer coupled at the carboxyl terminus) (P05067 672-713): as the sequence (P05067 672-713 limits assumed) above

Regarding 6E10 monoclonal anti-Aβ antibody, the equilibrium dissociation constant (Kd) (in general, the constant that tells how readily two partners part at equilibrium) in [1] stood at 47 nM; in [2] it was 158 nM; in assay [3], 69 nM.

In the case of “intravenous immunoglobulin (IVIG; Gammagard Liquid, Baxter) (antibody)”, the percent of control binding in presence of competitor in assay [4] turned out to be 50%. Moreover, the maximum binding value (A450 nm units) came to 2.88 in assay [5], 2.7 in [7] and 2.82 with Aβ fibril (Aβ42 fibril) [17]. Further, the figures for the fold by which the blank plate half maximum binding titer is lower than the titer on this plate (in [6]; in the assay with Aβ fibril (Aβ42 fibril) [8]; in assay [10]) were 17.6 fold, 6.5 fold and 3.9 fold, respectively. Further, the half maximum titer was 9.42 in assay [9], 42.8 in assay [14] and 15.8 with Aβ fibril (Aβ42 fibril) [16]. The fold by which maximum binding on blank plates exceeds that on the amyloid plate (in assay [11]; in assay [13]; in the assay with Aβ fibril (Aβ42 fibril) [15]) was 1.6 fold in each case. Further, in [12], the ammonium thiocyanate concentration for 50% maximal binding turned out to be 4 M.
